From the Human Domainome abundance scans (Beltran et al. 2025)

B1: Segment polarity protein dishevelled homolog DVL-3, residues 2 to 81; numbered along this chain, Q92997 (parent)
chain: GETKIIYHLDGQETPYLVKLPLPAERVTLADFKGVLQRPSYKFFFKSMDDDFGVVKEEISDDNAKLPCFNGRVVSWLVSA

Variants of: B1
Assay: abundance fitness (aPCA) (normalised: wild type 0, dead -1); higher = more abundant; growth selection in yeast, the domain comes from the species named
Settings: Homo sapiens

Abundance fitness of substitutions, site by site:
Y16: V -0.115 | A -0.593 | C 0.041 | Q 0.16 | K 0.074 | T -0.15 | W -0.572 | H 0.23 | M 0.096 | N -0.157 | P -0.869 | D -0.708 | I 0.216 | E -0.167 | L 0.025 | S -0.213 | F -0.082
L20: I 0.101 | M -0.679 | D -0.68 | K -0.666 | W -0.472 | Q -1.09 | G -0.625 | F -0.336 | A -1.06 | R -0.779 | V 0.104 | T -0.836 | S -0.664 | P -0.954 | C -0.632 | E -0.615
D10: G -0.709 | I -0.831 | R -0.696 | F -0.677 | E -0.016 | K -0.791 | T -0.471 | L -0.848 | S -0.68 | A -0.513 | P 0.002 | V -0.726 | M -0.822 | W -0.866 | N -0.507 | C -0.709 | H -0.568
L22: N -0.923 | R -0.656 | F -0.502 | G -0.856 | T -0.598 | D -0.574 | H -0.617 | A -0.604 | C -0.231 | V 0.059 | K -0.019 | Q -0.429 | E -0.617 | S -0.822 | M -0.017 | P -0.645 | W -0.578
E13: A -0.183 | D -0.129 | R -0.092 | P -0.011 | Y -0.526 | F -0.549 | G -0.348 | T -0.129 | C -0.251 | L -0.42 | S -0.107 | K 0.064 | H -0.473 | N -0.222 | M -0.047 | I -0.184 | V -0.426 | Q -0.034 | W -0.351
K19: E -0.034 | P -0.797 | G -0.635 | C -0.024 | Q -0.297 | D -0.547 | F -0.215 | M 0.058 | S 0.157 | V 0.383 | A -0.143 | H -0.07 | W -0.357 | Y -0.154 | R -0.132 | N -0.133 | I 0.314 | T 0.271
P15: R -0.406 | A -0.142 | S -0.078 | Y -0.743 | L -0.654 | C -0.33 | E 0.136 | T -0.058 | F -0.891 | I -0.863 | D -0.464 | H -0.348 | Q -0.064 | G -0.47 | N -0.529
E25: S -0.115 | P -0.965 | G -0.096 | C -0.035 | H -0.022 | W -0.457 | R -0.59 | Q -0.389 | T -0.356 | L -0.825 | Y -0.501 | I -0.658 | V -0.807 | K -0.474 | F -0.913 | M -0.335 | N -0.006 | A -0.252
R26: I -0.34 | D -0.027 | P -0.675 | S -0.068 | Y -0.414 | G -0.441 | K 0.039 | W -0.78 | L -0.081 | E 0.086 | Q 0.123 | C -0.102 | V -0.08 | A 0.027 | T -0.188 | M -0.276 | H -0.182
T28: P -0.555 | D -0.401 | G -0.597 | H -0.411 | N -0.715 | L -0.73 | Q -0.811 | C -0.793 | K -0.52 | F -0.321 | M -0.604 | I -0.578 | E -0.985
P23: Y -0.517 | K -0.671 | A -0.395 | F -0.405 | N -0.833 | V -0.739 | C -0.79 | H -0.55 | D -0.469 | W -0.863 | M -0.972 | G -0.73 | Q -0.731 | L -0.682 | T -0.862 | R -0.625 | E -0.383 | I -0.112
L17: I 0.447 | S 0.245 | Q 0.271 | E 0.75 | C 0.347 | K -0.367 | D -0.677 | T 0.479 | R -0.337 | P -0.907 | F 0.328 | M 0.428 | Y 0.258 | A -0.098 | H 0.335 | G -0.434 | N -0.482 | W 0.022
T14: L -0.328 | F -0.092 | Q 0.114 | H 0.281 | P -0.129 | R 0.096 | Y -0.955 | V -0.128 | S -0.104 | G -0.296 | W -0.529 | A -0.123 | K 0.286 | C -0.112 | D 0.038 | E 0.215 | I 0.024 | N -0.049 | M -0.265
A24: V -0.42 | H -0.505 | R -0.492 | S -0.03 | Y -0.325 | G -0.168 | N -0.415 | E -0.415 | P 0.17 | M -0.546 | T -0.51 | L -0.356 | C -0.107 | Q -0.074 | K -0.174 | D -0.54 | W -0.235 | I -0.431 | F -0.549
V27: S -0.675 | G -0.675 | H -0.664 | K -0.469 | A -0.478 | D -0.987 | F -0.154 | W -0.929 | R -0.875 | C -0.119 | Y -0.651 | Q -0.831 | E -0.624 | I 0.003 | N -0.785 | P -0.656 | T -0.762
V18: G -0.612 | Y -0.589 | I -0.025 | S -0.906 | H -0.298 | W -0.643 | Q -0.872 | E -0.68 | D -0.694 | C -0.558 | T -0.33 | L -0.054 | K -0.601 | N -0.329 | A -0.264 | F -0.707 | R -0.717 | M -0.247
G11: K -0.384 | C -0.333 | M -0.617 | H -0.471 | R -0.435 | P -0.668 | N 0.095 | Q -0.322 | V -0.919 | E -0.112 | D 0.192 | Y -0.391 | F -0.586 | I -1.06 | W -0.466 | L -0.389 | S -0.262 | T -0.418 | A -0.356
L9: Y -0.581
P21: L -0.758 | Q -0.269 | D -0.253 | A -0.169 | W -0.712 | M -0.426 | C -0.391 | T -0.592 | G -0.56 | I -0.561 | R -0.575 | F -0.588 | V -0.789 | H -0.196 | Y -0.693 | E -0.293 | N 0.003 | K -0.449 | S -0.313
Q12: A -0.129 | L -0.305 | K -0.088 | P -0.638 | N 0.269 | W -0.612 | I 0.083 | M 0.063 | S 0.263 | T -0.106 | F -0.227 | D 0.386 | E 0.219 | R -0.053 | V -0.012 | C 0.126 | G 0.129 | H 0.134 | Y -0.019
